From article PMC4700666, “The structure of a prophenoloxidase (PPO) from Anopheles gambiae provides new insights into the mechanism of PPO activation” (BMC Biology, 2016)

Target: the molecule itself
Experiment: SEC; size exclusion chromatography of purified AgPPO8 against standard proteins; eluted at a similar retention volume as bovine γ-globulin

B1: Anopheles gambiae prophenoloxidase 8 (AgPPO8) (enzyme, UniProt Q8MZM3 1-700, looked up)
chain: MATLTQKFHGLLQHPLEPLFLPKNDGTLFYDLPERFLTSRYSPIGQNLANRFGPNSPASSQVSNDTGVPPTVVTIKDLDELPDLTFATWIKRRDSFSLFNPEHRKAAGKLTKLFLDQPNADRLVDVAAYARDRLNAPLFQYALSVALLHRPDTKSVSVPSLLHLFPDQFIDPAAQVRMMEEGSIVLDENRMPIPIPMNYTATDAEPEQRMAFFREDIGVNLHHWHWHLVYPASGPPDVVRKDRRGELFYYMHQQLLARYQIDRYAQGLGRIEPLANLREPVREAYYPKLLRTSNNRTFCPRYPGMTISDVARSADRLEVRIADIESWLPRVLEAIDAGFAVSDDGVRVPLDETRGIDVLGNILERSAISINRNLYGDVHNMGHVLLAFIHDPRGTYLESSGVMGGVATAMRDPIFYRWHKFIDNIFLRNKARLAPYTMAELSNSNVTLEALETQLDRAGGAVNSFVTFWQRSQVDLRAGIDFSAAGSAFVSFTHLQCAPFVYRLRINSTARSNRQDTVRIFLLPRQNEQGRPLSFEDRRLLAIELDSFRVNLRPGMNNIVRQSSNSSVTIPFERTFGNVEQANAGNAQSRFCGCGWPAHMLLPKGNANGVEFDLFAMVSRFEDDNANVNYDENAGCDDSYAFCGLRDRVYPSRRAMGFPFDRRASNGVRSVADFVAPYKNMRLATVTLRFMNTIIDRPTN
notes: Prophenoloxidase 8 (PPO8) of Anopheles gambiae, zymogen; cDNA amplified from a cDNA pool of second instar larvae; each subunit in the crystal comprises 700 residues (numbered 1-700; pro-region 17-81, domain I 1-16 and 82-196, domain II 197-435, domain III 436-697); Expressed as a SUMO fusion with an N-terminal 6xHis tag; also called A. gambiae PPO8; source: E. coli BL21 gold (DE3), purified …
B1 was tested, and the “stoichiometry N” value was 2.
